Measurements: patent US7901936B2, “Method for stimulating self-renewal of neural stem cells and enhancing neurogenesis” (Albany Medical College, priority 2004, dated 2011)

B1: BDNF: soluble growth factor (protein, UniProt P23560 19-247, looked up)
Neurotrophic factor BDNF …: APMKEANIRGQGGLAYPGVRTHGTLESVNGPKAGSRGLTSLADTFEHVIEELLDEDQKVRPNEENNKDADLYTSRVMLSSQVPLEPPLLFLLEEYKNYLDAANMSMRVRRHSDPARRGELSVCDSISEWVTAADKKTAVDMSGGTVTVLEKVPVSKGQLKQYFYETKCNPMGYTKEGCRGIDKRHWNSQCRTTQSYVRALTMDSKKRIGWRFIRIDTSCVCTLTIKRGR
B2: CNTF: soluble growth factor (protein, UniProt P26441 1-200, looked up)
Ciliary neurotrophic factor: MAFTEHSPLTPHRRDLCSRSIWLARKIRSDLTALTESYVKHQGLNKNINLDSADGMPVASTDQWSELTEAERLQENLQAYRTFHVLLARLLEDQQVHFTPTEGDFHQAIHTLLLQVAAFAYQIEELMILLEYKIPRNEADGMPINVGDGGLFEKKLWGLKVLQELSQWTVRSIHDLRFISSHQTGIPARGSHYIANNKKM
B3: M-CSF: soluble growth factor (protein, UniProt P09603 33-554, looked up)
Macrophage colony-stimulating …: EEVSEYCSHMIGSGHLQSLQRLIDSQMETSCQITFEFVDQEQLKDPVCYLKKAFLLVQDIMEDTMRFRDNTPNAIAIVQLQELSLRLKSCFTKDYEEHDKACVRTFYETPLQLLEKVKNVFNETKNLLDKDWNIFSKNCNNSFAECSSQDVVTKPDCNCLYPKAIPSSDPASVSPHQPLAPSMAPVAGLTWEDSEGTEGSSLLPGEQPLHTVDPGSAKQRPPRSTCQSFEPPETPVVKDSTIGGSPQPRPSVGAFNPGMEDILDSAMGTNWVPEEASGEASEIPVPQGTELSPSRPGGGSMQTEPARPSNFLSASSPLPASAKGQQPADVTGTALPRVGPVRPTGQDWNHTPQKTDHPSALLRDPPEPGSPRISSLRPQGLSNPSTLSAQPQLSRSHSSGSVLPLGELEGRRSTRDRRSPAEPEGGPASEGAARPLPRFNSVPLTDTGHERQSEGSFSPQLQESVFHLLVPSVILVLLAVGGLLFYRWRRRSHQEPQRADSPLEQPEGSPLTQDDRQVELPV
B4: G-CSF: soluble growth factor (protein, UniProt P09919 31-207, looked up)
Granulocyte …: TPLGPASSLPQSFLLKCLEQVRKIQGDGAALQEKLVSECATYKLCHPEELVLLGHSLGIPWAPLSSCPSQALQLAGCLSQLHSGLFLYQGLLQALEGISPELGPTLDTLQLDVADFATTIWQQMEELGMAPALQPTQGAMPAFASAFQRRAGGVLVASHLQSFLEVSYRVLRHLAQP

Test system: cortical stem cell clones
Assay: Clonal growth of cortical stem cells with added soluble growth factors (without feeder cells)
Assay type: cell-based, mouse
Conditions: factor added at 10-50 ng/ml to serum-free medium with FGF2, no feeder cells
Procedure: Embryonic cerebral cortices and adult SVZ were dissected and dissociated as described (18-20). Single cells were plated into poly-l-lysine-coated 6-well plates (Costar) at clonal density (2000-4000 cells/well) and cultured in basal serum-free medium consisting of DMEM, B27, N2, NAC and 10 ng/ml FGF2 (19,20). To test the effects of soluble growth factors (PDGF, CNTF, TGFβ, IGF1, IL1, IL6, G-CSF, M-CSF, GM-CSF, LIF, BDNF, Steel factor, VEGF or EGF), each factor was added to serum-free medium with FGF2 at a range of 10-50 ng/ml, and clonal growth (cell number and generation of neurons and glia) was assessed (without co-cultured feeder cells). LIF and VEGF were also tested in combination, each added at 10 ng/ml into serum-free medium, with and without FGF2.

Question: Which “duplication of the effect of endothelial co-culture on clonal growth” value (“duplication” below) does the source give for B1 here?
Answer: none duplicated the result we see from endothelial co-cultures

Question: For B2, which “duplication” value is on record?
Answer: none duplicated the result we see from endothelial co-cultures

Question: For B3, which “duplication” value is on record?
Answer: none duplicated the result we see from endothelial co-cultures

Question: B4 was tested. Which “duplication” value did it give?
Answer: none duplicated the result we see from endothelial co-cultures
